Test results as given in patent US20250249113.

Experiments:
[1] = tested on: Compound 11: DM1-Mcc-Phe-Cit-Lys(PEG5-Ma-Cys-Ac)-Tyr-OH
[2] = tested on: Compound 1: AF-Arg-Lys(PEG4-Mal-Cys-Ac)-Phe-OH
[3] = tested on: Compound 3: AF-Arg-Phe-Lys(PEG4-Mal-Cys-Ac)-OH
[4] = tested on: Compound 6: DM1-Mal-Phe-Cit-Lys(PEG4-Mal-Cys-Ac)-Phe-OH
[5] = tested on: Compound 7: DM1-Mal-Phe-Cit-Phe-Lys(PEG4-Mal-Cys-Ac)-OH
[6] = tested on: Compound 12: DM1-Mcc-Cit-Lys(PEG5-Ma-Cys-Ac)-Tyr-OH
[7] = tested on: Compound 8: AF-Cit-Lys(PEG4-Mal-Cys-Ac)-Phe-OH
[8] = tested on: Compound 5: DM1-Mal-Phe-Lys-Lys(PEG4-Mal-Cys-Ac)-Phe-OH

recombinant human Cathepsin B
Ratio (T1/2 Compound/T1/2 Reference), Cat B-induced cleavage [1]: 0.005
T1/2 Compound (min), Cat B-induced cleavage [1]: 0.06 min
T1/2 of cleavage by exo-Cat B [1]: compounds 11 and 12 are spontaneously cleaved by exo-Cat B (T1/2≤1 min)
Ratio (T1/2 Compound/T1/2 Reference), Cat B-induced cleavage [2]: 0.12
T1/2 Compound (min), Cat B-induced cleavage [2]: 1.5 min
Ratio (T1/2 Compound/T1/2 Reference), Cat B-induced cleavage [3]: 0.11
T1/2 Compound (min), Cat B-induced cleavage [3]: 1.4 min
Ratio (T1/2 Compound/T1/2 Reference), Cat B-induced cleavage [4]: 0.02
T1/2 Compound (min), Cat B-induced cleavage [4]: 0.3 min
Ratio (T1/2 Compound/T1/2 Reference), Cat B-induced cleavage [5]: 0.09
T1/2 Compound (min), Cat B-induced cleavage [5]: 1.2 min
Ratio (T1/2 Compound/T1/2 Reference), Cat B-induced cleavage [6]: 4e-05
T1/2 Compound (min), Cat B-induced cleavage [6]: 0.0004 min
T1/2 of cleavage by exo-Cat B [6]: compounds 11 and 12 are spontaneously cleaved by exo-Cat B (T1/2≤1 min)
Ratio (T1/2 Compound/T1/2 Reference), Cat B-induced cleavage [7]: 0.09
T1/2 Compound (min), Cat B-induced cleavage [7]: 1.1 min
Ratio (T1/2 Compound/T1/2 Reference), Cat B-induced cleavage [8]: 0.05
T1/2 Compound (min), Cat B-induced cleavage [8]: 0.6 min
